Measurements published in article PMC5461267, “Membrane Guanylate Cyclase catalytic Subdomain: Structure and Linkage with Calcium Sensors and Bicarbonate” (Frontiers in Molecular Neuroscience, 2017).
Substitutions are numbered along the chain they refer to. In names and notes the source's numbering stands.

T1: ROS-GC1 (rod outer segment guanylate cyclase type 1), full-length recombinant (Bos taurus, UniProt P55203)
T1 construct: gene GUCY2D; full-length wild-type cDNA expressed in COS-7 cells; membrane fraction assayed; homodimer
T1 sequence (P55203 57-1110): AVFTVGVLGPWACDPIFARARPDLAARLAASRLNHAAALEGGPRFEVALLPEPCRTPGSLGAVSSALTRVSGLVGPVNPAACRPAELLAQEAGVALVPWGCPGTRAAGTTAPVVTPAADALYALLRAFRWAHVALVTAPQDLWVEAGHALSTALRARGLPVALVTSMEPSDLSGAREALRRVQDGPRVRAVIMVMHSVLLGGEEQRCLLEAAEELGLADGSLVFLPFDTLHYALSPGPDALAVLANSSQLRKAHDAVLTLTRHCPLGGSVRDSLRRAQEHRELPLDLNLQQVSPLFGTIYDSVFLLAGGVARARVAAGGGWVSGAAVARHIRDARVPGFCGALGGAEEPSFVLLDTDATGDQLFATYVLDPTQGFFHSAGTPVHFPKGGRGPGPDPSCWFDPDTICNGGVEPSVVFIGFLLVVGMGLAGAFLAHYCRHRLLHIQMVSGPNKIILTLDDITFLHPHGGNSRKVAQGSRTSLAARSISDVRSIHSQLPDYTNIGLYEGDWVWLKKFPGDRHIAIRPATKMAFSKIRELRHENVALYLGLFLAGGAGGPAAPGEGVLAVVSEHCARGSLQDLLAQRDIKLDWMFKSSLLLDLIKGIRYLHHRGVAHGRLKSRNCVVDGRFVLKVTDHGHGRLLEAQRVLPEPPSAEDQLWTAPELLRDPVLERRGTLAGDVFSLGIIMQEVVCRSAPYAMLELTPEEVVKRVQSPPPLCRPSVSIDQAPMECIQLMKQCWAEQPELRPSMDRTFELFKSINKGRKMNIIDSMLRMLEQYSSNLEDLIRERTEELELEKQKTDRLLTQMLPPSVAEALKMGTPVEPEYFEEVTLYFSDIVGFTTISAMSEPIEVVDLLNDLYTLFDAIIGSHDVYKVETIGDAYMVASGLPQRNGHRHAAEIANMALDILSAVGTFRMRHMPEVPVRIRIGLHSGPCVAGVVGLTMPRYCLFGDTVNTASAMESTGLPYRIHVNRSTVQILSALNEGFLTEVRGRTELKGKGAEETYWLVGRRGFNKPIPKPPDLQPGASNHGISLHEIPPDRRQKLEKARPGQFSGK

B1: ROS-GC1 (rod outer segment guanylate cyclase type 1), full-length recombinant (Bos taurus; A1013R) (protein)
chain: T1 sequence (P55203 57-1110) with A957R
notes: full-length wild-type cDNA expressed in COS-7 cells; membrane fraction assayed; homodimer
B2: ROS-GC1 (rod outer segment guanylate cyclase type 1), full-length recombinant (Bos taurus; A1013R/N1009A) (protein)
chain: T1 sequence (P55203 57-1110) with N953A, A957R
notes: as for B1
B3: ROS-GC1 (rod outer segment guanylate cyclase type 1), full-length recombinant (Bos taurus; A1013R/E930A) (protein)
chain: T1 sequence (P55203 57-1110) with E874A, A957R
notes: as for B1
B4: ROS-GC1 (rod outer segment guanylate cyclase type 1), full-length recombinant (Bos taurus; A1013R/C1002A) (protein)
chain: T1 sequence (P55203 57-1110) with C946A, A957R
notes: as for B1
B5: ROS-GC1 (rod outer segment guanylate cyclase type 1), full-length recombinant (Bos taurus; A1013R/D890A) (protein)
chain: T1 sequence (P55203 57-1110) with D834A, A957R
notes: as for B1
B6: ROS-GC1 (rod outer segment guanylate cyclase type 1), full-length recombinant (Bos taurus; A1013R/D934A) (protein)
chain: T1 sequence (P55203 57-1110) with D878A, A957R
notes: as for B1
B7: ROS-GC1 (rod outer segment guanylate cyclase type 1), full-length recombinant (Bos taurus; A1013R/R981A) (protein)
chain: T1 sequence (P55203 57-1110) with R925A, A957R
notes: as for B1

Legend:
[1] = molecular target: T2, CCD/CTE (aa 817-1054) of ROS-GC1 (Bos taurus, UniProt P55203, A1013R); experiment: cyclic GMP radioimmunoassay, purified protein; type: biochemical; conditions: 1 mM GTP, 4 mM MgCl2, pH 7.5, 37 °C
T2 construct: gene GUCY2D; dimer
T2 sequence (P55203 873-1110 A1013R): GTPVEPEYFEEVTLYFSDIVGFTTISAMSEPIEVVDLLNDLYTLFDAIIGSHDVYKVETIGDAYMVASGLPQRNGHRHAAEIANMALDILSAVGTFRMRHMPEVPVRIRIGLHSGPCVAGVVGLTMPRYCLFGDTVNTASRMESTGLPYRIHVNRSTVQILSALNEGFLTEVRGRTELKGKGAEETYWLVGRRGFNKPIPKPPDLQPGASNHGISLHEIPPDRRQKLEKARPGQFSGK

[2] = molecular target: T3, CCD (aa fragment 817-965) of ROS-GC1 (Bos taurus, UniProt P55203, A1013R); experiment: cyclic GMP radioimmunoassay, purified protein; type: biochemical; conditions: 1 mM GTP, 4 mM MgCl2, pH 7.5, 37 °C
T3 construct: gene GUCY2D; homodimer
T3 sequence (P55203 873-1021 A1013R): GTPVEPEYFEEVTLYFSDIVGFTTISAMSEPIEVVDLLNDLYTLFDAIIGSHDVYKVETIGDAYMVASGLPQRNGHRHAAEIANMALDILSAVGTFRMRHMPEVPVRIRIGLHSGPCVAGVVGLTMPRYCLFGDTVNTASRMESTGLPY

[3] = molecular target: T1, ROS-GC1 (rod outer segment guanylate cyclase type 1), full-length recombinant; experiment: cyclic GMP radioimmunoassay, COS cell membranes; Hill fit; type: biochemical; conditions: constant Mg2+, GTP 0-3 mM, pH 7.5, 37 °C; half-maximal concentration from Hill equation
[4] = substrate: Nc1nc2c(ncn2[C@@H]2O[C@H](COP(=O)(O)OP(=O)(O)OP(=O)(O)O)[C@@H](O)[C@H]2O)c(=O)[nH]1; experiment: as above; type: biochemical, Bos taurus; conditions: constant Mg2+, GTP 0-3 mM, pH 7.5, 37 °C, half-maximal concentration from Hill equation

Molecule	Km [4]	further results
Nc1nc2c(ncn2[C@@H]2O[C@H](COP(=O)(O)OP(=O)(O)OP(=O)(O)O)[C@@H](O)[C@H]2O)c(=O)[nH]1 [GTP]	–	cyclic GMP radioimmunoassay, purified protein [1]: constructs lacked the TMD, illustrated by the CCD–CTE and CCD; cyclic GMP radioimmunoassay, purified protein [2]: The isolated soluble CCD construct contained only a minimal basal specific catalytic activity; Km [3]: 500 ± 30 µM
B1	450 ± 20 µM	–
B2	490 ± 10 µM	–
B3	530 ± 30 µM	–
B4	640 ± 20 µM	–
B5	560 ± 30 µM	–
B6	480 ± 40 µM	–
B7	520 ± 30 µM	–
